From doi:10.1101/671792 (bioRxiv, 2019)

B1: MBP-tagged wild-type AtNBR1-PB1 (domain or fragment)
chain: MESTANALVVKVSYGGVLRRFRVPVKANGQLDLEMAGLKEKIAALFNLSADAELSLTYSDEDGDVVALVDDNDLFDVTNQRLKFLKINVNAGVST
B2: Arabidopsis thaliana NBR1 PB1 domain, residues 1-95 (domain or fragment)
chain: B1 chain
B3: TFG-1 (Trk-fused gene 1) PB1 domain, residues 1-95 (domain or fragment)
chain: MNGQLDLSGKLIIKAQLGEDIRRIPIHNEDITYDELVLMMQRVFRGKLLSNDEVTIKYKDEDGDLITIFDSSDLSFAIQCSRILKLTLFVNGQPR
B4: p62/SQSTM1 PB1 domain, residues 1-102 (domain or fragment)
chain: MASLTVKAYLLGKEDAAREIRRFSFCCSPEPEAEAEAAAGPGPCERLLSRVAALFPALRPGGFQAHYRDEDGDLVAFSSDEELTMAMSYVKDDIFRIYIKEK

Legend:
[1] = biological target: B2; assay: pull-down
sedimentation = biological target: the molecule itself; assay: sedimentation

binding result [1]	Binder	binding result (sedimentation)
binds	B1	
	B2	binds
	B3	binds
	B4	binds
